Square brackets hold non-standard residues; d marks the D form. Ends that are not written are not given here. Tyr(3-NO2) = N[C@@H](Cc1ccc(O)c([N+](=O)[O-])c1)C(=O)O; Nle = CCCC[C@H](N)C(=O)O; 2Abz = Nc1ccccc1C(=O)O
Legend:
Format in all cases: biochemical
[1] = target: T1, matriptase (Homo sapiens, UniProt Q9Y5Y6); test: FRET peptide cleavage efficiency with matriptase
T1 construct: purchased R&D Systems 3946-SEB
T1 sequence (Q9Y5Y6 615-855 limits assumed): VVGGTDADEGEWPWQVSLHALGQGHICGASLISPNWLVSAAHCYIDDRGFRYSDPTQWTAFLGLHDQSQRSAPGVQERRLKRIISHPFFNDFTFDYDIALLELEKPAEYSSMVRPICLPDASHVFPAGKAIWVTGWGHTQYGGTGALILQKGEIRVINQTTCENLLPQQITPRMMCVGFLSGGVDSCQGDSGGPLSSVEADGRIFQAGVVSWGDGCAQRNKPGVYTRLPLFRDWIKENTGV

[2] = target: T2, MMP-2 (Homo sapiens, UniProt P08253); test: FRET peptide cleavage efficiency with MMP-2
T2 construct: purchased SIGMA PF023
T2 sequence (P08253 110-660): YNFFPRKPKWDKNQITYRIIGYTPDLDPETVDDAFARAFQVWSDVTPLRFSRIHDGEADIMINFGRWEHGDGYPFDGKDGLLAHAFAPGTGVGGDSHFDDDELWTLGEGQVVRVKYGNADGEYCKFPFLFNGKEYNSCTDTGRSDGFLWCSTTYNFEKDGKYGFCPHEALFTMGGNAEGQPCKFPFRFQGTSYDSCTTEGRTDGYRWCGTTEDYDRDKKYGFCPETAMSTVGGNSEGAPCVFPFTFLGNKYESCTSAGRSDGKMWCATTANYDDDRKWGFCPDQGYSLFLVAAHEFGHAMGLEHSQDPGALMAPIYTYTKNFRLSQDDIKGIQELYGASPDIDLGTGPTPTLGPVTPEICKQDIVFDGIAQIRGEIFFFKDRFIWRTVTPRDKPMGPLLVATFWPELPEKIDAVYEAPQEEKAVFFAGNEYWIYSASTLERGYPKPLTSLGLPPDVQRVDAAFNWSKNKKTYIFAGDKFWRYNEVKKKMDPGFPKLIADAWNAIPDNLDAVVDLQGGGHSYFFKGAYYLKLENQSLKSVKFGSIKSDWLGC

[3] = target: Kallikrein-3 (Homo sapiens, UniProt P07288); test: FRET peptide cleavage efficiency with Kallikrein-3; details: peptide 200 uM, Kallikrein-3 2 μg/ml, 37° C., pH 8
[4] = target: uPA (Homo sapiens, UniProt P00749); test: FRET peptide cleavage efficiency with uPA
[5] = target: T3, MMP-7 (Homo sapiens, UniProt P09237); test: FRET peptide cleavage efficiency with MMP-7 (standard pH 7.5; also pH 6.5); details: for % cleavage MMP-7 t = 15 min: t = 15 min (Table 9); for % cleavage MMP-7 t = 60 min: t = 60 min (Table 9); for % cleavage MMP-7 t = 120 min: t = 120 min (Table 9)
T3 construct: purchased SIGMA CC1059
T3 sequence (P09237 95-267): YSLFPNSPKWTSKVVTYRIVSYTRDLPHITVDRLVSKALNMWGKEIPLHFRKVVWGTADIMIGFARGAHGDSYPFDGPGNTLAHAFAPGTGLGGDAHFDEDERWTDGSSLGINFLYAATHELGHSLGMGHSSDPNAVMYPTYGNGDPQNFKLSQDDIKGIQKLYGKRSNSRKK

[6] = target: T4, MMP-9 (Homo sapiens, UniProt P14780); test: FRET peptide cleavage efficiency with MMP-9 (standard pH 7.5; also pH 6.5); details: for % cleavage MMP-9 t = 15 min: t = 15 min (Table 9); for % cleavage MMP-9 t = 60 min: t = 60 min (Table 9); for % cleavage MMP-9 t = 120 min: t = 120 min (Table 9)
T4 construct: purchased SIGMA PF024

[7] = t = 15 min, 200 uM linker, 1 ug/ml protease, 37° C., buffer B pH 9.0
[8] = t = 60 min, 200 uM linker, 1 ug/ml protease, 37° C., buffer B pH 9.0
[9] = 200 uM linker, 1 ug/ml protease, 37° C., buffer B pH 9.0
[10] = t = 15 min, 200 uM linker, 1 ug/ml protease, 37° C., buffer C pH 7.5
[11] = t = 60 min, 200 uM linker, 1 ug/ml protease, 37° C., buffer C pH 7.5
[12] = t = 120 min, 200 uM linker, 1 ug/ml protease, 37° C., buffer C pH 7.5
[13] = 200 uM linker, 1 ug/ml protease, 37° C., buffer A pH 8.5
[14] = t = 60 min, 200 uM linker, 1 ug/ml protease, 37° C., buffer A pH 8.5
[15] = t = 120 min, 200 uM linker, 1 ug/ml protease, 37° C., buffer A pH 8.5

T4 sequence (P14780 94-707): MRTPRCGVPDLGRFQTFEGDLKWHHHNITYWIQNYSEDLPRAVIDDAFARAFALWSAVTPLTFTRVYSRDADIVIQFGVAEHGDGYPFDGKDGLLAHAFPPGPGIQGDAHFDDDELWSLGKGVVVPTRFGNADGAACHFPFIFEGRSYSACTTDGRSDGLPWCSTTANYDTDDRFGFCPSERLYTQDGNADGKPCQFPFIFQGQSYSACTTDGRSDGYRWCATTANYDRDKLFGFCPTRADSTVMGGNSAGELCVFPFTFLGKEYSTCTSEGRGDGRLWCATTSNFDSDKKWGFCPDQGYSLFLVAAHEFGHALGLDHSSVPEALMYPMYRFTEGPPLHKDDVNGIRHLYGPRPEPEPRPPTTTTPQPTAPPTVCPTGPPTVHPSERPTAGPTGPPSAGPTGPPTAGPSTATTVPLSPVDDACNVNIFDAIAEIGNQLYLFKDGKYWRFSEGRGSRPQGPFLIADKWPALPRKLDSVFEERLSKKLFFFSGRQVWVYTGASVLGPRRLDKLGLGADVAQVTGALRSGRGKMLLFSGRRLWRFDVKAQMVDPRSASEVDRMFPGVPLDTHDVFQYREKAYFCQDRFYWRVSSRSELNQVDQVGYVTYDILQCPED
Kallikrein-3, sequence (P07288 25-261, species assumed): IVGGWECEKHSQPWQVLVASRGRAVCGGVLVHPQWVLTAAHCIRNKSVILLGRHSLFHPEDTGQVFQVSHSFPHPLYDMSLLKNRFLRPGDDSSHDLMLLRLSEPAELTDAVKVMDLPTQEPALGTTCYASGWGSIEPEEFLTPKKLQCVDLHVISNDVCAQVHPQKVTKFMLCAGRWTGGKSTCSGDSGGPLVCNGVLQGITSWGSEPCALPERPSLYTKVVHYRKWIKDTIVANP

SS-Nle-YSSAG ([2Abz]SS[Nle]YSSAG[Tyr(3-NO2)]-NH2) [LNK081]
% cleavage Matriptase t = 15 min [1, 7]: 0% | % cleavage Matriptase t = 60 min [1, 8]: 0% | % cleavage Matriptase t = 120 min [1, 9]: 0% | % cleavage MMP-2 t = 15 min [2, 10]: 3% | % cleavage MMP-2 t = 60 min [2, 11]: 11% | % cleavage MMP-2 t = 120 min [2, 12]: 19% | Kallikrein-3 t = 1 h % cleavage [3]: 27% | Kallikrein-3 t = 3 h % cleavage [3]: 62% | Kallikrein-3 t = 6 h % cleavage [3]: 87% | Kallikrein-3 t = 8 h % cleavage [3]: 94% | % cleavage uPA t = 15 min [4, 13]: 0% | % cleavage uPA t = 60 min [4, 14]: 0% | % cleavage uPA t = 120 min [4, 15]: 0%

ISQYSSAT ([2Abz]ISQYSSAT[Tyr(3-NO2)]-NH2) [LNK070]
% cleavage Matriptase t = 15 min [1, 7]: 0% | % cleavage Matriptase t = 60 min [1, 8]: 0% | % cleavage Matriptase t = 120 min [1, 9]: 0% | % cleavage MMP-2 t = 15 min [2, 10]: 0% | % cleavage MMP-2 t = 60 min [2, 11]: 0% | % cleavage MMP-2 t = 120 min [2, 12]: 0% | Kallikrein-3 t = 1 h % cleavage [3]: 0% | Kallikrein-3 t = 3 h % cleavage [3]: 0% | Kallikrein-3 t = 6 h % cleavage [3]: 0% | Kallikrein-3 t = 8 h % cleavage [3]: 0% | % cleavage uPA t = 15 min [4, 13]: 0% | % cleavage uPA t = 60 min [4, 14]: 0% | % cleavage uPA t = 120 min [4, 15]: 0%

SQLYSSPG ([2Abz]SQLYSSPG[Tyr(3-NO2)]-NH2) [LNK068]
% cleavage Matriptase t = 15 min [1, 7]: 0% | % cleavage Matriptase t = 60 min [1, 8]: 0% | % cleavage Matriptase t = 120 min [1, 9]: 0% | % cleavage MMP-2 t = 15 min [2, 10]: 2% | % cleavage MMP-2 t = 60 min [2, 11]: 9% | % cleavage MMP-2 t = 120 min [2, 12]: 18% | Kallikrein-3 t = 1 h % cleavage [3]: 31% | Kallikrein-3 t = 3 h % cleavage [3]: 70% | Kallikrein-3 t = 6 h % cleavage [3]: 94% | Kallikrein-3 t = 8 h % cleavage [3]: 100%

SQYQSSPG ([2Abz]SQYQSSPG[Tyr(3-NO2)]-NH2) [LNK067]
% cleavage Matriptase t = 15 min [1, 7]: 0% | % cleavage Matriptase t = 60 min [1, 8]: 0% | % cleavage Matriptase t = 120 min [1, 9]: 0% | % cleavage MMP-2 t = 15 min [2, 10]: 1% | % cleavage MMP-2 t = 60 min [2, 11]: 5% | % cleavage MMP-2 t = 120 min [2, 12]: 10% | Kallikrein-3 t = 1 h % cleavage [3]: 8% | Kallikrein-3 t = 3 h % cleavage [3]: 22% | Kallikrein-3 t = 6 h % cleavage [3]: 41% | Kallikrein-3 t = 8 h % cleavage [3]: 51%

SSLYSSPG ([2Abz]SSLYSSPG[Tyr(3-NO2)]-NH2) [LNK065]
% cleavage Matriptase t = 15 min [1, 7]: 0% | % cleavage Matriptase t = 60 min [1, 8]: 0% | % cleavage Matriptase t = 120 min [1, 9]: 0% | % cleavage MMP-2 t = 15 min [2, 10]: 3% | % cleavage MMP-2 t = 60 min [2, 11]: 12% | % cleavage MMP-2 t = 120 min [2, 12]: 21% | Kallikrein-3 t = 1 h % cleavage [3]: 32% | Kallikrein-3 t = 3 h % cleavage [3]: 68% | Kallikrein-3 t = 6 h % cleavage [3]: 93% | Kallikrein-3 t = 8 h % cleavage [3]: 100%

SGRPLGYFGKL ([2Abz]SGRPLGYFGKL[Tyr(3-NO2)]-NH2) [LNK056]
% cleavage MMP-7 t = 15 min [5]: 0% | % cleavage MMP-7 t = 60 min [5]: 0% | % cleavage MMP-7 t = 120 min [5]: 0% | % cleavage MMP-9 t = 15 min [6]: 32% | % cleavage MMP-9 t = 60 min [6]: 100% | % cleavage MMP-9 t = 120 min [6]: 100% | % cleavage Matriptase t = 15 min [1, 7]: 0% | % cleavage Matriptase t = 60 min [1, 8]: 0% | % cleavage Matriptase t = 120 min [1, 9]: 0% | % cleavage MMP-2 t = 15 min ([2]; t = 15 min (Table 9)): 75% | % cleavage MMP-2 t = 15 min [2, 10]: 75% | % cleavage MMP-2 t = 60 min ([2]; t = 60 min (Table 9)): 100% | % cleavage MMP-2 t = 60 min [2, 11]: 100% | % cleavage MMP-2 t = 120 min ([2]; t = 120 min (Table 9)): 100% | % cleavage MMP-2 t = 120 min [2, 12]: 100% | % cleavage uPA t = 15 min [4, 13]: 0% | % cleavage uPA t = 60 min [4, 14]: 0% | % cleavage uPA t = 120 min [4, 15]: 0%

RQRRSPLGLAG ([2Abz]RQRRSPLGLAG[Tyr(3-NO2)]-NH2) [LNK010]
% cleavage MMP-7 t = 15 min [5]: 15% | % cleavage MMP-7 t = 60 min [5]: 49% | % cleavage MMP-7 t = 120 min [5]: 78% | % cleavage MMP-9 t = 15 min [6]: 76% | % cleavage MMP-9 t = 60 min [6]: 99% | % cleavage MMP-9 t = 120 min [6]: 100% | % cleavage Matriptase t = 15 min ([1]; pH 6.5, t = 15 min (Table 7)): 90% | % cleavage Matriptase t = 60 min ([1]; pH 6.5, t = 60 min (Table 7)): 100% | % cleavage Matriptase t = 15 min ([1]; pH 7.5, t = 15 min (Table 7)): 100% | % cleavage Matriptase t = 60 min ([1]; pH 7.5, t = 60 min (Table 7)): 100% | % cleavage Matriptase t = 15 min [1, 7]: 98% | % cleavage Matriptase t = 60 min [1, 8]: 94% | % cleavage Matriptase t = 120 min [1, 9]: 91% | % cleavage MMP-2 t = 15 min ([2]; pH 6.5, t = 15 min (Table 7)): 63% | % cleavage MMP-2 t = 60 min ([2]; pH 6.5, t = 60 min (Table 7)): 100% | % cleavage MMP-2 t = 15 min ([2]; pH 7.5, t = 15 min (Table 7)): 66% | % cleavage MMP-2 t = 60 min ([2]; pH 7.5, t = 60 min (Table 7)): 100% | % cleavage MMP-2 t = 15 min ([2]; t = 15 min (Table 9)): 67% | % cleavage MMP-2 t = 15 min [2, 10]: 64% | % cleavage MMP-2 t = 60 min ([2]; t = 60 min (Table 9)): 100% | % cleavage MMP-2 t = 60 min [2, 11]: 99% | % cleavage MMP-2 t = 120 min ([2]; t = 120 min (Table 9)): 100% | % cleavage MMP-2 t = 120 min [2, 12]: 99% | % cleavage uPA t = 60 min ([4]; pH 6.5, t = 60 min (Table 7)): 0% | % cleavage uPA t = 120 min ([4]; pH 6.5, t = 120 min (Table 7)): 0% | % cleavage uPA t = 60 min ([4]; pH 7.5, t = 60 min (Table 7)): 0% | % cleavage uPA t = 120 min ([4]; pH 7.5, t = 120 min (Table 7)): 0% | % cleavage uPA t = 15 min [4, 13]: 0% | % cleavage uPA t = 60 min [4, 14]: 1% | % cleavage uPA t = 120 min [4, 15]: 2%

SSLQSSPG ([2Abz]SSLQSSPG[Tyr(3-NO2)]-NH2) [LNK066]
% cleavage Matriptase t = 15 min [1, 7]: 0% | % cleavage Matriptase t = 60 min [1, 8]: 0% | % cleavage Matriptase t = 120 min [1, 9]: 0% | % cleavage MMP-2 t = 15 min [2, 10]: 1% | % cleavage MMP-2 t = 60 min [2, 11]: 5% | % cleavage MMP-2 t = 120 min [2, 12]: 9% | Kallikrein-3 t = 1 h % cleavage [3]: 14% | Kallikrein-3 t = 3 h % cleavage [3]: 40% | Kallikrein-3 t = 6 h % cleavage [3]: 67% | Kallikrein-3 t = 8 h % cleavage [3]: 78%

From patent US20240400614A1, “CLEAVABLE PEPTIDES AND METHODS OF USE THEREOF” (Bright Peak Therapeutics AG, priority 2023, published 2024)
